Molecular target: the molecule itself
Experiment: SDS-PAGE of the unboiled sample; purified OmpF in 1% octyl-POE, sample not boiled before SDS-PAGE

B1: outer membrane protein OmpF from Escherichia coli (natural protein, UniProt P02931 23-362, looked up)
chain: AEIYNKDGNKVDLYGKAVGLHYFSKGNGENSYGGNGDMTYARLGFKGETQINSDLTGYGQWEYNFQGNNSEGADAQTGNKTRLAFAGLKYADVGSFDYGRNYGVVYDALGYTDMLPEFGGDTAYSDDFFVGRVGGVATYRNSNFFGLVDGLNFAVQYLGKNERDTARRSNGDGVGGSISYEYEGFGIVGAYGAADRTNLQEAQPLGNGKKAEQWATGLKYDANNIYLAANYGETRNATPITNKFTNTSGFANKTQDVLLVAQYQFDFGLRPSIAYTKSKAKDVEGIGDVDLVNYFEVGATYYFNKNMSTYVDYIINQIDSDNKLGVGSDDTVAVGIVYQF
notes: Outer membrane porin OmpF, Escherichia coli, native protein from strain B^E BL21(DE3)omp6 (lacks LamB and OmpC); no residues or identifiers printed; The protein here comes from an E. coli B strain, whose OmpF may differ from it at a few positions; also called native OmpF protein
With B1 the “stoichiometry N” value was 3.

— paper PMC4979867, “Reconstitution of the membrane protein OmpF into biomimetic block copolymer–phospholipid hybrid membranes” (Beilstein Journal of Nanotechnology, 2016)
